The text below walks through data of doi:10.1101/123679 (bioRxiv, 2017).

Test in all cases: FRET or BRET
For orientation: BRET reads energy transfer from a luciferase to a nearby fluorophore.

For test [1], the target named is T1, mRFP-RTN1 (Arabidopsis reticulon 1) (Arabidopsis thaliana, UniProt Q9SUR3 1-275).
T1 sequence (looked up): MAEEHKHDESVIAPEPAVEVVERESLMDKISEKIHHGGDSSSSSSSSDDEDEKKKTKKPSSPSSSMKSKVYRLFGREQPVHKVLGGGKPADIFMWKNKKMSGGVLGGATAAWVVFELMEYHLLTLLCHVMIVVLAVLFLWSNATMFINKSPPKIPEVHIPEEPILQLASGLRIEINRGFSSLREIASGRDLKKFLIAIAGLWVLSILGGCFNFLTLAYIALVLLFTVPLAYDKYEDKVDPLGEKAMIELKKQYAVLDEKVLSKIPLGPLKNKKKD

The target of test [2] is T2, RTN2 fused to mRFP (Arabidopsis reticulon 2) (Arabidopsis thaliana, UniProt Q9SUT9 1-271).
T2 sequence (looked up): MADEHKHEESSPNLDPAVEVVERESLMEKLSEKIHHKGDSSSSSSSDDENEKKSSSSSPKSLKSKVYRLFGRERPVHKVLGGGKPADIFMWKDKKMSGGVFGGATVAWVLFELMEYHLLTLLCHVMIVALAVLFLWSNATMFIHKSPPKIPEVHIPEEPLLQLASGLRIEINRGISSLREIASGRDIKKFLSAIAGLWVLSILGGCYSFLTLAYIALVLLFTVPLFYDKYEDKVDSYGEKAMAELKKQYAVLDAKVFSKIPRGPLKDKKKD

In test [3] the target is T3, RTN3 fused to mRFP (Arabidopsis reticulon 3) (Arabidopsis thaliana, UniProt Q9SH59 1-255).
T3 sequence (looked up): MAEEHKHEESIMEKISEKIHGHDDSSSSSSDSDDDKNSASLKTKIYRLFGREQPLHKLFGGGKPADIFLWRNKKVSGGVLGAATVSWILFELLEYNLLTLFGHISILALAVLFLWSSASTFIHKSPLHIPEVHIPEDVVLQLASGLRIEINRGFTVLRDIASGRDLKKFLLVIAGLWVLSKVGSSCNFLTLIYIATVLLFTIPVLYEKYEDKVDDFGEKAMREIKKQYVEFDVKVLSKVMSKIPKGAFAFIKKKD

In test [4] the target is T4, RTN19 fused to mRFP (Arabidopsis reticulon 19, 3BETAHSD/D2) (Arabidopsis thaliana, UniProt Q67ZE1 1-564).
T4 sequence (looked up): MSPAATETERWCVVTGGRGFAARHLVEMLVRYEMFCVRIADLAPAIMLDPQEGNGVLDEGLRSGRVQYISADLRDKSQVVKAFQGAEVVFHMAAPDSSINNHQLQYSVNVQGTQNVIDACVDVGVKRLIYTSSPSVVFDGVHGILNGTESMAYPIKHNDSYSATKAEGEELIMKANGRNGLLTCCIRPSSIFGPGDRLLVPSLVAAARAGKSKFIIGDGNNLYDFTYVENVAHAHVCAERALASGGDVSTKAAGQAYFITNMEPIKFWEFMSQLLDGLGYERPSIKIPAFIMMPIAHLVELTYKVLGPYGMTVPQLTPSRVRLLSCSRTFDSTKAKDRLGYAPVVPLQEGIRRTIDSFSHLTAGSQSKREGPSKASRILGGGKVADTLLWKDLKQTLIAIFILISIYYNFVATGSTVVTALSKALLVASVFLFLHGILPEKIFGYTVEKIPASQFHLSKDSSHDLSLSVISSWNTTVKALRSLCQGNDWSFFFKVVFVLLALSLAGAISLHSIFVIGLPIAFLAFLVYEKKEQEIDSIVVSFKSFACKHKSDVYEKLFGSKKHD

B1: GFP-RTN20 (Arabidopsis reticulon 20) (natural protein, Arabidopsis thaliana, UniProt A9X4U2 1-561, looked up)
chain: MDEDSVHGDSHLKTCVVLGGRGFIGRSLVSRLLRLGNWTVRVADSGHTLHLDESDSLLEDALSSGRASYHCVDVRDKPQIVKVTEGSYVVFYMGATDLRSHDYFDCYKVIVQGTRNVISACRESGVRKLIYNSTADVVFDGSQPIRDGDESLRRPLKFQSMLTDFKAQAEALIKLANNRDGLLTCALRSSIVFGPGDTEFVPFLVNLAKSGYAKFILGSGENISDFTYSENVSHAHICAVKALDSQMEFVAGKEFFITNLKPVRFWDFVSHIVEGLGYPRPSIKLPVRLVLYVFSLLKWTHEKEGLGSNYDTAHQYALLASSTRTFNCNAAKKHLGYTPVVTLEDGIASTLQWFSRDLEKSDDTIIQSTADQLLGCGKVADILLWRNEKKTFVSFLVLNLFYYWFFFSGNTFTSSAAQLLFIFAVALYGVSFVPSKIFGFQVNKIPPWRFEISESAVRDLSSDIVVVWNQGVRSFKSLSSGGDWIKFFKIAGSLYLLKLIVSRSLAAFLFTVMSFSFTGFFIYEQYELELYHLARIFVECLTFIKRMVIPVSDASSKPMFM
In the case of B1, the “fluorescence lifetime of the GFP donor (FRET-FLIM)” value was 2.21 ns in test [1], 2.2 ns in test [2], 2.2 ns in test [3] and 2.2 ns in test [4].
